Data on one substance can be found in paper PMC12603276.

The target in the assay is MORC2 (UniProt Q9Y6X9). Kind of assay: co-IP of Flag-rPGK1, immunoblot. Particulars: reference: WT Flag-rPGK1; sites S256.

“PGK1 (from UniProt P00558) Flag-rPGK1 S256A”: the “binding against the reference” value is on record as “lost”.
